One substance from paper PMC6085627 can be followed below.

The target of the assay is Human TLR4/MD-2 complex (human) (UniProt O00206). In words: SPR; Biacore T200; TLR4/MD-2 amine-coupled on CM5 (1100 RU); GST-A-box, GST-B-box (150-5000 nM), A-box or GST injected at 30 μL/min for 60 s, 25 °C, dissociation 1 min; HBS-EP pH 7.4; GST-A-box: association and dissociation fitted separately to a 1:1 model; GST-B-box: steady-state affinity model; apparent KD. Background: SPR reads the build-up and loss of mass on a sensor chip optically.
Sequence of Human TLR4/MD-2 complex (human) (O00206 24-631, chain 1 of 2): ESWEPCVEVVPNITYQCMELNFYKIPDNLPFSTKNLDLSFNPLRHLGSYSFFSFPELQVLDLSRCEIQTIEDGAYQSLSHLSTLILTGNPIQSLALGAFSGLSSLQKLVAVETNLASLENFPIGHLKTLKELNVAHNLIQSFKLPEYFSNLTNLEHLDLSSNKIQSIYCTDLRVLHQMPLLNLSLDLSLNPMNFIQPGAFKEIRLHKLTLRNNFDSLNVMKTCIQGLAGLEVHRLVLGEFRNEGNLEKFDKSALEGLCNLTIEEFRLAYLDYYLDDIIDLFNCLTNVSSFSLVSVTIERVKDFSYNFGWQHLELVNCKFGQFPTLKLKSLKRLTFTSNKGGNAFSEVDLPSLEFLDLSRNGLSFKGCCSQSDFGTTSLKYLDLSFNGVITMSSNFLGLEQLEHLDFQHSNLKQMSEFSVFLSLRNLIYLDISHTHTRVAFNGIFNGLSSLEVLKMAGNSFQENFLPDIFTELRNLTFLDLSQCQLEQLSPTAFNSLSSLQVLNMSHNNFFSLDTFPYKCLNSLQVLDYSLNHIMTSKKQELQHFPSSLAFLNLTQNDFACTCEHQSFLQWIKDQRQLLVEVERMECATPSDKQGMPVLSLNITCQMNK
Sequence of Human TLR4/MD-2 complex (human) (Q9Y6Y9 19-160, chain 2 of 2, further chain): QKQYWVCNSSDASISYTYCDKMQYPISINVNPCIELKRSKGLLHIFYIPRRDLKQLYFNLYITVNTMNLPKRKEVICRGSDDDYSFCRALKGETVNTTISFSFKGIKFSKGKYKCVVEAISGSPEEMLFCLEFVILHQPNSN

With “Recombinant GST-B-box (domain or fragment)”, the Kd stood at 5.78 µM.
